This note sets out measurements from PMC314469, “Protein Interaction Networks by Proteome Peptide Scanning” (PLoS Biology, 2004).

Experiment [1] has as its target T1, amphyphisin SH3 (AMPH_HUMAN), P49418.
T1 chain: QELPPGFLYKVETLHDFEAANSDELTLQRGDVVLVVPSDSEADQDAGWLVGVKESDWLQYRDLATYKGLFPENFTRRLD
Briefly: SPOT array.

In experiment [2] the target is endophilin SH3 (SH3G2_HUMAN), Q99962. The experiment can be described thus: SPOT array.

B1: Q96D64 48-61 (peptide)
chain: PGTSPRRPSVVPSR
With B1, the normalised SPOT signal, Boehringer light units (BLU); mean over the file's lines of this peptide amounted to 35.3 in experiment [1] and 587 in experiment [2].

B2: Q9UN16 222-235 (peptide)
chain: PGVEPKRPSRPINL
Consider B2, for which the normalised SPOT signal, Boehringer light units (BLU); mean over the file's lines of this peptide is 8660 in experiment [1] and 227 in experiment [2].

B3: Q9Y2Z7 47-60 (peptide)
chain: PISVLRRPGANHEG
B3: the normalised SPOT signal, Boehringer light units (BLU); mean over the file's lines of this peptide in experiment [1] was 46.1; in experiment [2], 90.8.

B4: O75698 245-258 (peptide)
chain: PKERLRRPETSGIS
With B4, the normalised SPOT signal, Boehringer light units (BLU); mean over the file's lines of this peptide in experiment [1] came to 38.7; in experiment [2], 32.6.

B5: P51511 339-353 (peptide)
chain: PGGKPERPPKPGPP
Regarding B5, the figures for the normalised SPOT signal, Boehringer light units (BLU); mean over the file's lines of this peptide in experiment [1] and in experiment [2] were 570 and 4460, respectively.

B6: Q9NQE0 211-224 (peptide)
chain: ARRPPPRPHRRAET
With B6, the normalised SPOT signal, Boehringer light units (BLU); mean over the file's lines of this peptide in experiment [1] was found to be 2030; in experiment [2] it was 2500.

B7: Q12984 75-88 (peptide)
chain: PGQGPQRPRRPAKD
Consider B7, for which the normalised SPOT signal, Boehringer light units (BLU); mean over the file's lines of this peptide came to 4690 in experiment [1] and 5880 in experiment [2].

B8: Q9Y5X7 158-171 (peptide)
chain: PHADPGRPERLVFK
B8: the normalised SPOT signal, Boehringer light units (BLU); mean over the file's lines of this peptide in experiment [1] came to 169; in experiment [2], 8.4.

B9: Q96FN8 185-198 (peptide)
chain: PHKRPRRPHQIADL
Turning to B9, the values for the normalised SPOT signal, Boehringer light units (BLU); mean over the file's lines of this peptide in experiment [1] and in experiment [2] were 75.3 and 58.2, respectively.

B10: Q06587 167-180 (peptide)
chain: PGPAPKRPRGGGAG
Consider B10, for which the normalised SPOT signal, Boehringer light units (BLU); mean over the file's lines of this peptide came to 38.5 in experiment [1] and 348 in experiment [2].

B11: Q96BF6 185-198 (peptide)
chain: PGLAPKRPLETGPR
Take B11: the normalised SPOT signal, Boehringer light units (BLU); mean over the file's lines of this peptide was 31.4 in experiment [1] and 1350 in experiment [2].

B12: Q8TEP0 205-219 (peptide)
chain: PGSLPSKPPPGPVP
Regarding B12, the normalised SPOT signal, Boehringer light units (BLU); mean over the file's lines of this peptide was found to be 48.3 in experiment [1] and 22.8 in experiment [2].

B13: Q9BW18 356-370 (peptide)
chain: PGPFPPRPPGPLGP
For B13, the results for the normalised SPOT signal, Boehringer light units (BLU); mean over the file's lines of this peptide in experiment [1] and in experiment [2] were 68.3 and 1930, respectively.

B14: Q14184 97-111 (peptide)
chain: PGPSPARPPAKPPE
For B14, the normalised SPOT signal, Boehringer light units (BLU); mean over the file's lines of this peptide was 19.1 in experiment [1] and 194 in experiment [2].

B15: Q9H6E1 62-75 (peptide)
chain: PHHELRRPVLQRQT
Turning to B15, the normalised SPOT signal, Boehringer light units (BLU); mean over the file's lines of this peptide worked out at 30.1 in experiment [1] and 4.1 in experiment [2].

B16: Q9H7J0 315-328 (peptide)
chain: PIQNIKRPYPGEVS
With B16, the figures for the normalised SPOT signal, Boehringer light units (BLU); mean over the file's lines of this peptide in experiment [1] and in experiment [2] were 48.7 and 110, respectively.

B17: Q9P2I2 89-102 (peptide)
chain: PGNIPQRPDRLPMS
With B17, the normalised SPOT signal, Boehringer light units (BLU); mean over the file's lines of this peptide came out at 2130 in experiment [1] and 360 in experiment [2].

B18: Q9NQV6 314-328 (peptide)
chain: PGRRPGRPPKFIRL
As for B18, the normalised SPOT signal, Boehringer light units (BLU); mean over the file's lines of this peptide in experiment [1] came to 504; in experiment [2], 15700.

B19: Q9H6A9 285-298 (peptide)
chain: PGRAPRRPLLEGGG
For the molecule B19, the normalised SPOT signal, Boehringer light units (BLU); mean over the file's lines of this peptide in experiment [1] came out at 44.4; in experiment [2], 711.

B20: Q13577 1110-1123 (peptide)
chain: PGEHPGRPGRGGSV
Consider B20, for which the normalised SPOT signal, Boehringer light units (BLU); mean over the file's lines of this peptide in experiment [1] stood at 414; in experiment [2], 31.7.

B21: Q9GZW5 233-246 (peptide)
chain: PGTGPWRPGRQRGA
Take B21: the normalised SPOT signal, Boehringer light units (BLU); mean over the file's lines of this peptide in experiment [1] was found to be 656; in experiment [2] it was 156.

B22: P58401 8-21 (peptide)
chain: PGGSPRRPPALAGP
Turning to B22, the normalised SPOT signal, Boehringer light units (BLU); mean over the file's lines of this peptide in experiment [1] turned out to be 46.4; in experiment [2], 241.

B23: Q8WXD9 428-442 (peptide)
chain: PGDSPAKPPEGSAG
Regarding B23, the normalised SPOT signal, Boehringer light units (BLU); mean over the file's lines of this peptide worked out at 52.2 in experiment [1] and 72.5 in experiment [2].

B24: Q9H3S7 1093-1107 (peptide)
chain: PGPVPPRPPAAEPP
Turning to B24, the normalised SPOT signal, Boehringer light units (BLU); mean over the file's lines of this peptide was determined as 50.3 in experiment [1] and 331 in experiment [2].

B25: P78365 80-93 (peptide)
chain: PGQGLRRPARPGPA
As for B25, the normalised SPOT signal, Boehringer light units (BLU); mean over the file's lines of this peptide in experiment [1] was found to be 853; in experiment [2], 1310.

B26: O15209 277-290 (peptide)
chain: PGAGLRRPTYTPPS
As for B26, the normalised SPOT signal, Boehringer light units (BLU); mean over the file's lines of this peptide in experiment [1] is 31.8; in experiment [2], 171.

B27: Q9NVV2 32-45 (peptide)
chain: PHSAPLRPPRELHA
With B27, the normalised SPOT signal, Boehringer light units (BLU); mean over the file's lines of this peptide in experiment [1] was 9310; in experiment [2], 13000.

B28: Q99640 37-50 (peptide)
chain: PGFSLKRPRGLSRS
With B28, the figures for the normalised SPOT signal, Boehringer light units (BLU); mean over the file's lines of this peptide in experiment [1] and in experiment [2] were 40.1 and 41.8, respectively.

B29: Q99462 62-75 (peptide)
chain: PKDYPLRPPKMKFI
For the molecule B29, the normalised SPOT signal, Boehringer light units (BLU); mean over the file's lines of this peptide turned out to be 81.5 in experiment [1] and 1880 in experiment [2].

B30: Q16538 521-534 (peptide)
chain: PGHSPRRPRPLGLS
Consider B30, for which the normalised SPOT signal, Boehringer light units (BLU); mean over the file's lines of this peptide came out at 45.1 in experiment [1] and 2830 in experiment [2].

B31: O15427 206-219 (peptide)
chain: PGSGPPRPSRRLLD
For the molecule B31, the normalised SPOT signal, Boehringer light units (BLU); mean over the file's lines of this peptide in experiment [1] stood at 748; in experiment [2], 2310.

B32: Q9Y2W2 459-473 (peptide)
chain: PGPPPGRPPGPPPG
As for B32, the normalised SPOT signal, Boehringer light units (BLU); mean over the file's lines of this peptide in experiment [1] turned out to be 33.4; in experiment [2], 924.

B33: Q9NTN9 19-32 (peptide)
chain: PGPSLRRPSRELDA
As to B33, the results for the normalised SPOT signal, Boehringer light units (BLU); mean over the file's lines of this peptide in experiment [1] and in experiment [2] were 442 and 226, respectively.

B34: O94844 155-168 (peptide)
chain: ARRPLARPIKRGDI
In the case of B34, the values for the normalised SPOT signal, Boehringer light units (BLU); mean over the file's lines of this peptide in experiment [1] and in experiment [2] were 227 and 265, respectively.

B35: O43188 617-630 (peptide)
chain: ARSYLRRPAVVYIG
For the molecule B35, the normalised SPOT signal, Boehringer light units (BLU); mean over the file's lines of this peptide in experiment [1] worked out at 35.3; in experiment [2] it was 60.1.

B36: Q9HCH0 869-883 (peptide)
chain: PGVPPARPPPLTKV
As to B36, the figures for the normalised SPOT signal, Boehringer light units (BLU); mean over the file's lines of this peptide in experiment [1] and in experiment [2] were 807 and 10000, respectively.

B37: O75833 33-46 (peptide)
chain: PGTPPRRPASPSAL
B37: the results for the normalised SPOT signal, Boehringer light units (BLU); mean over the file's lines of this peptide in experiment [1] and in experiment [2] were 223 and 3750, respectively.

B38: Q96Q04 1263-1277 (peptide)
chain: PGPGPRRPPWEGAD
Turning to B38, the normalised SPOT signal, Boehringer light units (BLU); mean over the file's lines of this peptide in experiment [1] is 25; in experiment [2], 523.
